Drawing on PMC7886630, this text covers koff for one substance.

By koff is commonly meant the first-order rate constant of dissociation.

The target in assay [1] is soluble recombinant human ACE2 (Gln18-Ser740), His-tagged (human) (UniProt Q9BYF1). Kind of assay: AFM single-molecule force spectroscopy.
Assay [2] has as its target deglycosylated ACE2 treated with PNGase F (human) (UniProt Q9BYF1). Kind of assay: AFM single-molecule force spectroscopy.

As to “SARS-CoV-1 spike receptor-binding domain (residues 318-510) with C-terminal Fc tag (Fc fusion; modification not given)”, the koff came out at 0.57 s⁻¹ in assay [1] and 3.4 s⁻¹ in assay [2].
